Measured values published in patent US20200079844A1 (Ablynx, published 2020).
Read-outs that look alike come from different tables or passages of the source.

Assays:
[1] = molecular target: T1, human TNFα (human, UniProt P01375 77-233); experiment: competition ELISA, biotinylated TNFα (10 ng/ml) pre-incubated with nanobody, binding to coated Enbrel; 50% inhibition
T1 construct: Biotinylated in the ELISAs, amine-coupled to CM5 in Biacore; also called human TNF-alpha; hTNF-alpha

[2] = molecular target: T1, human TNFα
[3] = molecular target: T1, human TNFα; remark: listed apart in the source
[4] = molecular target: T1, human TNFα; remark: listed apart in the source
[5] = molecular target: T1, human TNFα; experiment: ELISA, biotinylated TNFα on neutravidin, anti-myc detection; 50% binding
[6] = molecular target: T1, human TNFα; experiment: cell-based or functional assay
[7] = molecular target: T1, human TNFα; experiment: cell-based or functional assay; remark: listed apart in the source
[8] = molecular target: T2, rhesus TNFα (rhesus, UniProt P48094 77-233); experiment: cell-based or functional assay
T2 sequence (P48094 77-233 limits assumed): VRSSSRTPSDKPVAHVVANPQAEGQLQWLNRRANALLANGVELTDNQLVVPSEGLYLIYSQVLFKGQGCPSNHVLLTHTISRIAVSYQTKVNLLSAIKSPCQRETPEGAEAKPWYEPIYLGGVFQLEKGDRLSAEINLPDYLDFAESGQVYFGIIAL

[9] = molecular target: T1, human TNFα; experiment: cell-based or functional assay; remark: listed apart in the source
[10] = molecular target: T1, human TNFα; experiment: cell-based or functional assay; remark: listed apart in the source
[11] = molecular target: T1, human TNFα; remark: listed apart in the source
[12] = molecular target: T1, human TNFα; experiment: ELISA on biotinylated human TNFα captured on neutravidin (as Example 10); untreated reference and mildly treated samples
[13] = molecular target: T1, human TNFα; experiment: competition ELISA, biotinylated human TNFα pre-incubated with nanobody, binding to coated Enbrel; 50% inhibition
[14] = molecular target: T2, rhesus TNFα; experiment: cell-based or functional assay; remark: listed apart in the source
[15] = molecular target: T1, human TNFα; experiment: cell-based or functional assay; remark: listed apart in the source
[16] = molecular target: T3, mouse serum albumin (mouse, UniProt P07724 25-608)
T3 construct: On the Biacore chip; also called mouse albumin
T3 sequence (P07724 25-608 limits assumed): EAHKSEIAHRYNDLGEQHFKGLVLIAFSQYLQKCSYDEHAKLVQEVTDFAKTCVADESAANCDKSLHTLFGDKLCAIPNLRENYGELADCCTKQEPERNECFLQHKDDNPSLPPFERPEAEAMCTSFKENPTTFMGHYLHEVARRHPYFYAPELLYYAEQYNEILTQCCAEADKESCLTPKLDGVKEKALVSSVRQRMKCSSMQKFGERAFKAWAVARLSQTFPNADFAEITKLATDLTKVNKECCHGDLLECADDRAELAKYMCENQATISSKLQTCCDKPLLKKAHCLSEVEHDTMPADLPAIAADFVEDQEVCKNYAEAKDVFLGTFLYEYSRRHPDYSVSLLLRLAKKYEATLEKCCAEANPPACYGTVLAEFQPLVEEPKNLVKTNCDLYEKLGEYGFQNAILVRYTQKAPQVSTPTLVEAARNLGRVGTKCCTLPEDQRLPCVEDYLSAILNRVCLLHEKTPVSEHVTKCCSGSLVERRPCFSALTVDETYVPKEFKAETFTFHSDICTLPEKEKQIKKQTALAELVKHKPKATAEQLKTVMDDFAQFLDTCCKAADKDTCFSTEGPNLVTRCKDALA

[17] = molecular target: Protein A (UniProt P38507 37-477)
[18] = molecular target: T4, human serum albumin (human, UniProt P02768 25-609)
T4 construct: On the Biacore chip; also called human albumin

[19] = molecular target: T5, rhesus serum albumin (rhesus, UniProt Q28522 17-600)
T5 construct: On the Biacore chip; also called rhesus albumin
T5 sequence (Q28522 17-600 limits assumed): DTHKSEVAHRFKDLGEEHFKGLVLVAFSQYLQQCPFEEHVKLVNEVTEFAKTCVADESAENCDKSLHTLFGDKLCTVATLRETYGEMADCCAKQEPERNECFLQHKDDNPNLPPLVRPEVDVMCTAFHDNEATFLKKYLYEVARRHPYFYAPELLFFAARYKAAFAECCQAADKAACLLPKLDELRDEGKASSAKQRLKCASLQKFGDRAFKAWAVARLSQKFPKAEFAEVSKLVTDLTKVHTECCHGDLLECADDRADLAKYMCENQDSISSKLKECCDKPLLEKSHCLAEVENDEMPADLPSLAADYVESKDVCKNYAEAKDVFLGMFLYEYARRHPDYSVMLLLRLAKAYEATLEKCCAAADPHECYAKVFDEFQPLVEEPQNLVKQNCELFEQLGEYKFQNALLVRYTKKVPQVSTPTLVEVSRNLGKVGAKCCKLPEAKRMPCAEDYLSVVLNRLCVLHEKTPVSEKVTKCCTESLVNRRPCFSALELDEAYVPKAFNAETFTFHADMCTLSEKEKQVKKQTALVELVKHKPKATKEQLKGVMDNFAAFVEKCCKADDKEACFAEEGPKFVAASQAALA

[20] = molecular target: T3, mouse serum albumin; remark: listed apart in the source

T1 sequence (P01375 77-233 limits assumed): as the sequence (P48094 77-233 limits assumed) above, with T44R, N72T, L138R counted along it

B1: PMP1G5 (TNF2) (VHH)
VHH: QVQLVESGGGLVQAGGSLRLSCAASGRTFSEPSGYTYTIGWFRQAPGKEREFVARIYWSSGLTYYADSVKGRFTISRDIAKNTVDLLMNSLKPEDTAVYYCAARDGIPTSRSVGSYNYWGQGTQVTVSS
notes: also called WT TNF2; not shown: C-terminal c-myc tag and (His)6 tag coded by vector pAX051
- IC50 [1]: 3.5 mg/L
- koff [2]: 0.00133 s⁻¹
- koff [3]: 0.000359 s⁻¹
- koff [4]: 0.00083 s⁻¹
- EC50 [5]: 0.02 mg/L
- EC50 in nM (mean); L929s + Act D cytotoxicity assay, human TNFa @ 0.5 ng/ml [6]: 1.41 nM
- EC50 in nM (mean); L929s + Act D cytotoxicity assay, human TNFa @ 0.5 ng/ml [7]: 1.41 nM
- EC50 in nM (mean); L929s + Act D cytotoxicity assay, rhesus TNFα @ 0.5 ng/ml [8]: > 50 nM
- EC50 in nM (mean); L929s + Act D cytotoxicity assay, human TNFα @ 0.5 ng/ml [9]: 1.41 nM
- EC50 in nM; alphaKYM cell assay (10000 c/w), human TNFa @ 1 ng/ml [10]: 4.24 nM
- koff [11]: 0.00085 s⁻¹

B2: TNF32 (TNF2 HUM2) (VHH)
VHH: EVQLVESGGGLVQPGGSLRLSCAASGFTFSEPSGYTYTIGWFRQAPGKGREFVARIYWSSGLTYYADSVKGRFTISRDIAKNTVDLQMNSLRPEDTAVYYCAARDGIPTSRSVGSYNYWGQGTLVTVSS
notes: Humanised TNF2, second round; tags not restated
- EC50 in nM (mean); L929s + Act D cytotoxicity assay, human TNFa @ 0.5 ng/ml [7]: 2.51 nM
- EC50 (read off the curve) [12]: ~0.01 mg/L
- koff [11]: 0.00084 s⁻¹

B3: TNF31 (TNF2 HUM1) (VHH)
VHH: EVQLVESGGGLVQPGGSLRLSCAASGFTFSEPSGYTYTIGWFRQAPGKGREFVARIYWSSGLTYYADSVKGRFTISRDIAKNTVDLQMNSLRPEDTAVYYCAARDGIPTSRSVGSYNYWGQGTQVTVSS
notes: as for B2
- EC50 in nM (mean); L929s + Act D cytotoxicity assay, human TNFa @ 0.5 ng/ml [7]: 2.19 nM
- EC50 (read off the curve) [12]: ~0.01 mg/L
- koff [11]: 0.00063 s⁻¹

B4: TNF2-GS30-TNF2 (TNF8) (VHH)
chain: QVQLVESGGGLVQAGGSLRLSCAASGRTFSEPSGYTYTIGWFRQAPGKEREFVARIYWSSGLTYYADSVKGRFTISRDIAKNTVDLLMNSLKPEDTAVYYCAARDGIPTSRSVGSYNYWGQGTQVTVSSGGGGSGGGGSGGGGSGGGGSGGGGSGGGGSQVQLVESGGGLVQAGGSLRLSCAASGRTFSEPSGYTYTIGWFRQAPGKEREFVARIYWSSGLTYYADSVKGRFTISRDIAKNTVDLLMNSLKPEDTAVYYCAARDGIPTSRSVGSYNYWGQGTQVTVSS
notes: Bivalent nanobody, 30 AA GlySer linker
- IC50 [13]: 0.023 mg/L
- EC50 in nM (mean); L929s + Act D cytotoxicity assay, rhesus TNFa @ 0.5 ng/ml [14]: 1.03 nM
- EC50 in nM (mean); L929s + Act D cytotoxicity assay, human TNFa @ 0.5 ng/ml [15]: 0.007 nM
- EC50 in nM; alphaKYM cell assay (10000 c/w), human TNFa @ 1 ng/ml [10]: 0.013 nM

B5: PMP6A8 (ALB2) (VHH)
VHH: AVQLVESGGGLVQGGGSLRLACAASERIFDLNLMGWYRQGPGNERELVATCITVGDSTNYADSVKGRFTISMDYTKQTVYLHMNSLRPEDTGLYYCKIRRTWHSELWGQGTQVTVSS
notes: Class C serum albumin nanobody; not shown: C-terminal c-myc tag and (His)6 tag coded by vector pAX051
- difference in affinity for human/rhesus versus mouse serum albumin [16]: 400 fold
- binding result [17]: no binding (tested: 10 uM)
- Kd [18]: 0.092 nM
- koff [18]: 7.52e-05 s⁻¹
- kon [18]: 815000 M⁻¹ s⁻¹
- Kd [19]: 0.036 nM
- koff [19]: 7.12e-05 s⁻¹
- kon [19]: 1.94e+06 M⁻¹ s⁻¹
- Kd [20]: 15.7 nM
- koff [20]: 0.00307 s⁻¹
- kon [20]: 195000 M⁻¹ s⁻¹

B6: TNF2-GS9-TNF2 (TNF5) (VHH)
chain: QVQLVESGGGLVQAGGSLRLSCAASGRTFSEPSGYTYTIGWFRQAPGKEREFVARIYWSSGLTYYADSVKGRFTISRDIAKNTVDLLMNSLKPEDTAVYYCAARDGIPTSRSVGSYNYWGQGTQVTVSSGGGGSGGGSQVQLVESGGGLVQAGGSLRLSCAASGRTFSEPSGYTYTIGWFRQAPGKEREFVARIYWSSGLTYYADSVKGRFTISRDIAKNTVDLLMNSLKPEDTAVYYCAARDGIPTSRSVGSYNYWGQGTQVTVSS
notes: Bivalent nanobody, 9 AA GlySer linker
- IC50 [13]: 0.0063 mg/L
- EC50 in nM (mean); L929s + Act D cytotoxicity assay, rhesus TNFa @ 0.5 ng/ml [14]: 35 nM
- EC50 in nM (mean); L929s + Act D cytotoxicity assay, human TNFa @ 0.5 ng/ml [15]: 0.02 nM
- EC50 in nM; alphaKYM cell assay (10000 c/w), human TNFa @ 1 ng/ml [10]: 0.008 nM
